The target of the assay is NanH sialidase of Tannerella forsythia (wild type) (Tannerella forsythia 92A.2). Kind of assay: SEC-MALS; NanH at 0.5 and 3.0 mg/ml on Superdex S200 10/300 in 50 mM sodium phosphate, 200 mM NaCl pH 7.4, ~20°C; self-association. (SEC sorts molecules by how far they enter the pores of the column.)

Usually stoichiometry N stands for a count of units in the complex or per binding partner. “NanH sialidase of Tannerella forsythia (wild type) (enzyme)” had a percent of the protein as dimer of 90% and a stoichiometry N of 2.

Source of the values: PMC9472817, “Structural and functional characterisation of a stable, broad-specificity multimeric sialidase from the oral pathogen Tannerella forsythia” (Biochemical Journal, 2022).
